This is an account of results in PMC5715905, “Mechanistic insight into the assembly of the HerA–NurA helicase–nuclease DNA end resection complex” (Nucleic Acids Research, 2017).

Sequences and labels used below:
B1: HerA helicase, wild type (Sulfolobus solfataricus) (enzyme, S. solfataricus)
chain: MIIGYVIGQATTQEALILAERPVRLGTYVVLEYDNVKALGLITNVTRGSPMLDDNMNDIEIVQRLKQFNNSIPVYTKAKVKMLCDMNNHFLMPDIPPFAGTPAREAEDEELKSIYSQDGQIRIGSLIGKNVEVKLNINSFARHLAILAATGSGKSNTVAVLSQRISELGGSVLIFDYHGEYYDSDIKNLNRIEPKLNPLYMTPREFSTLLEIRENAIIQYRILRRAFIKVTNGIREKLKEGQIPFSTLNSQFYELMKDELETQGNSDKKSSAKDEVLNKFEEFMDRYSNVIDLTSSDIIEKVKRGKVNVVSLTQLDEDSMDAVVSHYLRRILDSRKDFKRSKNSGLKFPIIAVIEEAHVFLSKNENTLTKYWASRIAREGRKFGVGLTIVSQRPKGLDENILSQMTNKIILKIIEPTDKKYILESSDNLSEDLAEQLSSLDVGEAIIIGKIVKLPAVVKIDMFEGKLLGSDPDMIGEWKKVEESEKIAKGFADFGTEIGD
notes: HerA helicase of the thermophilic archaeon Sulfolobus solfataricus; In solution a mix of hexamer and heptamer; the hexamer is the form found with NurA; No tag is named in the purification; Expression and constructs may be described in the supplementary materials and methods; also called apo-HerA; wild-type HerA; source: cells lysed by sonication, lysate heated at 70°C, purified (Heparin HP, …)
B2: NurA nuclease, wild type (Sulfolobus solfataricus) (enzyme, S. solfataricus)
chain: MIRKIYDKLVESHNEIKNQIYNIANYLKQEIQDKVNEYWNEYVINHEQSETCKFVAIDGGSFGRPMRIGIVYAVGAESVIGDNKGVKTLSEDGQIGIFKPGNDAQERISLLMEALELSLALRDGSKGDYILMDGSLSKKIGNKVDIQQFSDEELKLIRNVDLNGIISIKDERKMRDLLMLLNQFLVSKIIEEYDGNVLWISKVSRGRDLFGTDYPDITVLELFTEKRGFSKLIIKNIDIEKISEIPEIEVLRKMEYTTFYTRLDNGKRVIRVDIVGRVDEKIVKEIMDRLSGVSIKGYPFPLLKAHMDVRFSAMDREKIIKLVGSKLHKDIEWWPSQFY
notes: NurA nuclease of the thermophilic archaeon Sulfolobus solfataricus; Homodimer; No tag is named in the purification; also called NurA^WT; NurA dimer; source: cells lysed by sonication, lysate heated at 70°C, purified (Heparin HP, HiTrap Q HP)
B3: NurA H306A, nuclease-inactive mutant (Sulfolobus solfataricus) (enzyme, S. solfataricus)
chain: B2 chain with H306A
notes: NurA nuclease of Sulfolobus solfataricus with H306A; Made to prevent dsDNA degradation in the HerA-NurA-dsDNA complex; source: cells lysed by sonication, lysate heated at 70°C, purified (Heparin HP, HiTrap Q HP)
B4: 5'-fluorescein 25 bp dsDNA (dsDNA)
DNA 1: GTAGTCCGGACGACAAACGCCGACT
DNA 2: AGTCGGCGTTTGTCGTCCGGACTAC
B5: 25 bp dsDNA (dsDNA)
DNA 1: GTAGTCCGGACGACAAACGCCGACT
DNA 2: AGTCGGCGTTTGTCGTCCGGACTAC

Positions count from the first letter of the chain named. Names and notes keep the numbering of the source. Values joined by “and” are separate entries in the source; they are usually repeats but may differ in a detail not shown here. Identical values can stand only once.

One series addresses T1, HerA–NurA (Saccharolobus solfataricus, UniProt Q97WG8).
T1 construct: purified recombinant HerA hexamer with NurA dimer; with DNA double-strand break repair nuclease NurA
The experiment in a line: native mass spectrometry. The format is binding. The note with it: nuclease-active complex with 25 bp dsDNA.

Series [1] addresses T2, HerA (Saccharolobus solfataricus, UniProt Q97WG8).
T2 construct: recombinant, heat-treated, heparin and Q columns; homo-hexamer and homo-heptamer (heptamer dominant when apo)
T2 sequence (Q97WG8 1-500): B1 chain
The experiment in a line: native mass spectrometry titration. The series is classed as binding. The note with it: 2 mM MgCl2, room temperature 1 h, 30 μM monomer, then 200 mM ammonium acetate, no dsDNA.

Series [2] deals with the molecule itself. The series is described as follows: native MS; HerA alone, nucleotide-free (apo), 200 mM ammonium acetate pH 7.0-7.5, nano electrospray; relative intensities by UniDec.
For series [3], the target named is B1. The experiment in a line: native MS; HerA incubated with NurA (2:3 molar ratio of monomers), no dsDNA, no nucleotide, 200 mM ammonium acetate. The note with it: both partners purified.
Series [4] concerns the molecule itself. The description is as above.
Series [5] deals with B1. The experiment in a line: native MS; HerA incubated with NurA and a 25 bp blunt-ended dsDNA (protein and DNA 1:1, 30 min at room temperature), no nucleotide, 200 mM ammonium acetate. The note with it: both partners purified.
In series [6] the target is T3, HerA (thermophilic archaeon, Sulfolobus …, UniProt Q97WG8 1-500).
T3 sequence: B1 chain
The experiment in a line: fluorescence anisotropy; 2 mM ATPgS, 5 mM MgCl2; HerA monomer concentration; FA: 5 nM dsDNA, 100 mM NaCl, 20 mM Hepes-NaOH pH 8.0, 30 min room temperature (with nucleotide: 2 mM plus 5 mM MgCl2); native MS: 200 mM ammonium acetate pH 7.0-7.5, 1:1 protein:DNA, 30 min room temperature. The note with it: protein: recombinant; chain copies: 6; label: 5'-fluorescein on strand 1; blunt. Background: In fluorescence polarisation assays a small probe gives low polarisation when free and higher when bound to something large.

Series [7] deals with T3, HerA. The series is described as follows: fluorescence anisotropy; no nucleotide; HerA monomer concentration; FA: 5 nM dsDNA, 100 mM NaCl, 20 mM Hepes-NaOH pH 8.0, 30 min room temperature (with nucleotide: 2 mM plus 5 mM MgCl2); native MS: 200 mM ammonium acetate pH 7.0-7.5, 1:1 protein:DNA, 30 min room temperature. The note with it: protein: recombinant; chain copies: 6; label: 5'-fluorescein on strand 1; blunt.

The target in another series is T4, HerA;NurA H306A (thermophilic archaeon, Sulfolobus …, UniProt Q97WG8;Q97WH1 1-500;1-339, |H306A).
T4 sequence 1: B1 chain
T4 sequence 2: B2 chain with H306A
The experiment in a line: fluorescence anisotropy; no nucleotide; Hill fit; monomeric HerA concentration; FA: 5 nM dsDNA, 100 mM NaCl, 20 mM Hepes-NaOH pH 8.0, 30 min room temperature (with nucleotide: 2 mM plus 5 mM MgCl2); native MS: 200 mM ammonium acetate pH 7.0-7.5, 1:1 protein:DNA, 30 min room temperature. The note with it: protein: recombinant;recombinant; tags: ;; chain copies: 6;2; label: 5'-fluorescein on strand 1; blunt.

The target of a further series is T5, HerA K154A (thermophilic archaeon, Sulfolobus …, UniProt Q97WG8 1-500, K154A).
T5 sequence: B1 chain with K154A
The experiment in a line: native MS; FA: 5 nM dsDNA, 100 mM NaCl, 20 mM Hepes-NaOH pH 8.0, 30 min room temperature (with nucleotide: 2 mM plus 5 mM MgCl2); native MS: 200 mM ammonium acetate pH 7.0-7.5, 1:1 protein:DNA, 30 min room temperature. The note with it: protein: recombinant; chain copies: 6; blunt.

The target of another series is T6, HerA;NurA (thermophilic archaeon, Sulfolobus …, UniProt Q97WG8;Q97WH1 1-500;1-339, |).
T6 sequence 1: B1 chain
T6 sequence 2: B2 chain
The experiment in a line: native MS; no nucleotide; dsDNA intact; FA: 5 nM dsDNA, 100 mM NaCl, 20 mM Hepes-NaOH pH 8.0, 30 min room temperature (with nucleotide: 2 mM plus 5 mM MgCl2); native MS: 200 mM ammonium acetate pH 7.0-7.5, 1:1 protein:DNA, 30 min room temperature. The note with it: protein: recombinant;recombinant; tags: ;; chain copies: 6;2; blunt.

`Nc1ncnc2c1ncn2[C@@H]1O[C@H](COP(=O)(O)OP(=O)(O)O)[C@@H](O)[C@H]1O` [ADP]: the native mass spectrometry entry at HerA–NurA (ATP-γ-S pre-bound) is given as “determined the number of ADP simultaneously bound to HerA–NurA–dsDNA”. In addition, the “native mass spectrometry titration” value at HerA [1] (1 mM ADP spectrum) is reported as “increase in hexameric HerA population was found when titrating HerA with increasing concentrations of ADP”.
For `Nc1ncnc2c1ncn2[C@@H]1O[C@H](COP(=O)(O)OP(=O)(O)OP(O)(O)=S)[C@@H](O)[C@H]1O` [ATP-γ-S], the native mass spectrometry result on HerA–NurA (mixed with ADP) was “nuclease-active HerA–NurA–dsDNA complex was incubated with ATP-γ-S”. Further, on HerA [1], the “native mass spectrometry titration” value is on record as “the HerA hexamer binds all six ATP-γ-S simultaneously”.
In general, stoichiometry N refers to the number of molecules, sites or subunits per partner or assembly. B1: in series [2], the “abundance of the heptamer over the hexamer” value is roughly 10 fold; the “stoichiometry N” value is 6 and 7.
Regarding B2, the binding result in [3] is recorded as “binds”. In series [4], the “stoichiometry N” value amounted to 2.
With B3, the binding result in [5] is listed as “binds”.
Usually Kd stands for the constant that tells how readily two partners part at equilibrium. With B4, the Kd in the series with HerA [6] was determined as 3.22 ± 0.27 µM; in the series with HerA [7], 4.85 ± 0.47 µM; with HerA;NurA H306A, 0.51 ± 0.0304 µM.
B5: the binding result in the series with HerA K154A is listed as “no binding”; with HerA;NurA it was “binds”.
